Laboratory results from FireProtDB (doi:10.1021/bi9621829).

Conditions: Homo sapiens; pH 2.7; Thermal; DSC; glycine 0.05 M; reversible: yes; whole UniProt chain shown

B1: Lysozyme C wild type, P61626 (protein)
chain: MKALIVLGLVLLSVTVQGKVFERCELARTLKRLGMDGYRGISLANWMCLAKWESGYNTRATNYNAGDRSTDYGIFQINSRYWCNDGKTPGAVNACHLSCSALLQDNIADAVACAKRVVRDPQGIRAWVAWRNRCQNRDVRQYVQGCGV
  Tm: 64.9 °C
  heat capacity change of unfolding: 1.58 kcal/mol/K
  unfolding enthalpy (calorimetric): 114 kcal/mol
  unfolding enthalpy (van 't Hoff): 120 kcal/mol
